Experimental data: patent US20240084017A1

How the values were obtained:
[1] = target: human Mac-1 (integrin αMβ2, CD11b/CD18) (human) (UniProt P11215); assay: flow cytometry, HEK293/Mac-1 cells (clone 1-4), PBS (Mock)
[2] = target: human Mac-1 (integrin αMβ2, CD11b/CD18) (human) (UniProt P11215); assay: flow cytometry, HEK293/Mac-1 cells (clone 1-4), PBS/MnCl2 (Mn2+)
[3] = target: human Mac-1 (integrin αMβ2, CD11b/CD18) (human) (UniProt P11215); assay: flow cytometry, HEK293/Mac-1 cells; MFI in PBS over MFI in PBS/MnCl2
[4] = target: human Mac-1 (integrin αMβ2, CD11b/CD18) (human) (UniProt P11215); assay: flow cytometry, HEK293/Mac-1 cells, PBS (Mock), 10 µg/ml of this antibody; binding of reporter mAb m24 read
[5] = target: human Mac-1 (integrin αMβ2, CD11b/CD18) (human) (UniProt P11215); assay: flow cytometry, HEK293/Mac-1 cells, PBS (Mock), 10 µg/ml of this antibody; binding of reporter mAb KIM127 read
[6] = target: human Mac-1 (integrin αMβ2, CD11b/CD18) (human) (UniProt P11215); assay: flow cytometry, HEK293/Mac-1 cells, PBS/MnCl2 (Mn2+), 10 µg/ml of this antibody; binding of reporter mAb m24 read
[7] = target: human Mac-1 (integrin αMβ2, CD11b/CD18) (human) (UniProt P11215); assay: flow cytometry, HEK293/Mac-1 cells, PBS/MnCl2 (Mn2+), 10 µg/ml of this antibody; binding of reporter mAb KIM127 read
[8] = target: human Mac-1 (integrin αMβ2, CD11b/CD18) (human) (UniProt P11215); assay: flow cytometry, HEK293/Mac-1 cells, PBS (Mock); binding of reporter mAb m24 read; control IgG4, the reference set to 1
[9] = target: human Mac-1 (integrin αMβ2, CD11b/CD18) (human) (UniProt P11215); assay: flow cytometry, HEK293/Mac-1 cells, PBS (Mock); binding of reporter mAb KIM127 read; control IgG4, the reference set to 1
[10] = target: human Mac-1 (integrin αMβ2, CD11b/CD18) (human) (UniProt P11215); assay: flow cytometry, HEK293/Mac-1 cells, PBS/MnCl2 (Mn2+); binding of reporter mAb m24 read; control IgG4, the reference set to 1
[11] = target: human Mac-1 (integrin αMβ2, CD11b/CD18) (human) (UniProt P11215); assay: flow cytometry, HEK293/Mac-1 cells, PBS/MnCl2 (Mn2+); binding of reporter mAb KIM127 read; control IgG4, the reference set to 1
[12] = target: human Mac-1 (integrin αMβ2, CD11b/CD18) (human) (UniProt P11215); assay: flow cytometry, HEK293/Mac-1 cells (clone 1-4), PBS (Mock); isotype control
[13] = target: human Mac-1 (integrin αMβ2, CD11b/CD18) (human) (UniProt P11215); assay: flow cytometry, HEK293/Mac-1 cells (clone 1-4), PBS/MnCl2 (Mn2+); isotype control
[14] = target: human Mac-1 (integrin αMβ2, CD11b/CD18) (human) (UniProt P11215); assay: flow cytometry, HEK293/Mac-1 cells; MFI in PBS over MFI in PBS/MnCl2; isotype control

Mock MFI [1]	Mn^2+ MFI [2]	Mock/Mn^2+ Ratio [3]	m24 (Expression relative to IgG4) (relative to IgG4) [4]	KIM127 (Expression relative to IgG4) (relative to IgG4) [5]	m24 (Expression relative to IgG4) (relative to IgG4) [6]	KIM127 (Expression relative to IgG4) (relative to IgG4) [7]	Substance	other results
143000 MFI	181000 MFI	0.79	–	–	–	–	CD11b activation-sensing mAb (CBRM1/5) (antibody)	–
805000 MFI	801000 MFI	1.01	0.66	0.94	0.66	0.75	CD11b specific mAb (clone ICRF44) (antibody)	–
–	–	–	–	–	–	–	IgG4 control (antibody)	m24 (Expression relative to IgG4) (relative to IgG4) [8]: 1; KIM127 (Expression relative to IgG4) (relative to IgG4) [9]: 1; m24 (Expression relative to IgG4) (relative to IgG4) [10]: 1; KIM127 (Expression relative to IgG4) (relative to IgG4) [11]: 1
–	–	–	0.71	0.94	0.8	0.84	M1/70 (antibody)	–
–	–	–	–	–	–	–	isotype control IgG (antibody)	Mock MFI [12]: 941 MFI; Mn^2+ MFI [13]: 935 MFI; Mock/Mn^2+ Ratio [14]: 1.01
